According to patent publication US20220064330A1:

Key:
complement C3 = complement C3 (UniProt P01024)

Sequence of complement C3, P01024 (P01024 whole entry, looked up): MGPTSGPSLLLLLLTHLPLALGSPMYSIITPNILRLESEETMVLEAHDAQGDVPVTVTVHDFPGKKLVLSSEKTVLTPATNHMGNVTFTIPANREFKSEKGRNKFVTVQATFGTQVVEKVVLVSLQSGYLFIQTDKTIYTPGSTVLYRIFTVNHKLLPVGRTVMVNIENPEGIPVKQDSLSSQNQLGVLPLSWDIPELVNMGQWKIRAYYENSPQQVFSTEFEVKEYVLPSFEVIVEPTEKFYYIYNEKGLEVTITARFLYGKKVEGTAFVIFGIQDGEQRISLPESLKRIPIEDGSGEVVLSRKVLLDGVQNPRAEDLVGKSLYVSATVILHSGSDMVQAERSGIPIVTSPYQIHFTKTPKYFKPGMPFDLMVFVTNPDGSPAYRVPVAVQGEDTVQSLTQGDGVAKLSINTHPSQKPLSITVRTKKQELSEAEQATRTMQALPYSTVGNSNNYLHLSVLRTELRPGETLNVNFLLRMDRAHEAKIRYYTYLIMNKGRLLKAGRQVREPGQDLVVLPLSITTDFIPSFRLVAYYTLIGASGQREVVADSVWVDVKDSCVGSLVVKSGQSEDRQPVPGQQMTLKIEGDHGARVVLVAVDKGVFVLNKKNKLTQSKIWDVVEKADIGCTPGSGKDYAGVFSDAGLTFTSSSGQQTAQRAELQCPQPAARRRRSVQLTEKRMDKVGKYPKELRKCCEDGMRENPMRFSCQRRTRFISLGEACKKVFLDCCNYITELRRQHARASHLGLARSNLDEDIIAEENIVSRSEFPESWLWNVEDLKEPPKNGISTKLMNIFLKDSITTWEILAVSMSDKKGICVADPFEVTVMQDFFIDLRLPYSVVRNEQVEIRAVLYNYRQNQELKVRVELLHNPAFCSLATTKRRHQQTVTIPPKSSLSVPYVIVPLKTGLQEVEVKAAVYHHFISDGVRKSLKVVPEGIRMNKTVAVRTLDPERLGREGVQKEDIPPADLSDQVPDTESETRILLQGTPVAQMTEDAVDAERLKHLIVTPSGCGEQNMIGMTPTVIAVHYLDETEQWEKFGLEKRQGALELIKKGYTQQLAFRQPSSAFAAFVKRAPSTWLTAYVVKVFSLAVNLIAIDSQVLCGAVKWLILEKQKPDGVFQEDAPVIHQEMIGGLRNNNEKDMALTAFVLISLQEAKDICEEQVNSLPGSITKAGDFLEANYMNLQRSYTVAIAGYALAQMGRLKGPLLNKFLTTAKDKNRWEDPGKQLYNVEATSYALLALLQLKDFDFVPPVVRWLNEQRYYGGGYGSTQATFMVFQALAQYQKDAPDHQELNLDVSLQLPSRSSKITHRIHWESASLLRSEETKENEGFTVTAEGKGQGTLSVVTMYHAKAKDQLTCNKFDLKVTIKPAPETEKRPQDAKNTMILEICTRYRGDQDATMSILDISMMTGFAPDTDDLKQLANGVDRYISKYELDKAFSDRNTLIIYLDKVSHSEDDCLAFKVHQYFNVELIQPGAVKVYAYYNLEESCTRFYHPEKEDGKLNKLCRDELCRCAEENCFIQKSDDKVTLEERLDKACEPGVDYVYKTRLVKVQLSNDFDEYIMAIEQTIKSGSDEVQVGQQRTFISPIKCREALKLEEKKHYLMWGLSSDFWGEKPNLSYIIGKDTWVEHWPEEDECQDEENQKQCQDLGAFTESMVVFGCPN

Molecule	cleavage of the C3 a-chain to the a' chain (Western blot) (complement C3)	cleavage of the C3 a-chain to the a' chain (Western blot) (complement C3, P01024)
human FXIa (activated human clotting factor XI)	can cleave C3 in vitro in the absence of any complement proteases	–
human FXa (activated human clotting factor X)	can cleave C3 in vitro in the absence of any complement proteases	–
bovine FXa (activated bovine clotting factor X) (protein) ANSFLEEVKQGNLERECLEEACSLEEAREVFEDAEQTDEFWSKYKDGDQCEGHPCLNQGHCKDGIGDYTCTCAEGFEGKNCEFSTREICSLDNGGCDQFCREERSEVRCSCAHGYVLGDDSKSCVSTERFPCGKFTQGRSRRWAIHTSEDALDASELEHYDPADLSPTESSLDLLGLNRTEPSAGEDGSQVVRIVGGRDCAEGECPWQALLVNEENEGFCGGTILNEFYVLTAAHCLHQAKRFTVRVGDRNTEQEEGNEMAHEVEMTVKHSRFVKETYDFDIAVLRLKTPIRFRRNVAPACLPEKDWAEATLMTQKTGIVSGFGRTHEKGRLSSTLKMLEVPYVDRSTCKLSSSFTITPNMFCAGYDTQPEDACQGDSGGPHVTRFKDTYFVTGIVSWGEGCARKGKFGVYTKVSNFLKWIDKIMKARAGAAGSRGHSEAPATWTVPPPLPL	–	can cleave C3 in vitro in the absence of any complement proteases
